Experimental data reported in the supplement of paper PMC7125110.
± gives the standard error. This sample holds only a part of the variants without activity.

B1: glmS ribozyme (parent)
chain: AUAAAAGCGCCAGAACUACAGAAAUGUAGUUGACGAGGAGGAGGUUUAUCGAAUUUUCGGCGGAUGCCUCCAAA

Columns and labels:
Conditions in all cases: with glucosamine-6-phosphate
glucosamine-6-phosphate [1] = variants of: B1; test: self-cleavage kobs at 40 uM GlcN6P; higher = faster cleavage; RNA array
Method in brief: (§1)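 Tracking of barcoded ribozyme variants used a hybridised Cy3 probe at 37 °C, after in situ transcription by E. coli RNA polymerase on sequenced MiSeq chips. The flowed solution held 40 μM to 10 mM glucosamine-6-phosphate in HEPES/KCl/Mg(OAc)2 buffer, and imaging ran over ~14 h. kobs was taken from exponential decay fits of normalised per-tile medians, and kcat and KM from weighted Michaelis–Menten fits.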

glucosamine-6-phosphate [2] = variants of: B1; test: self-cleavage kobs at 160 uM GlcN6P; higher = faster cleavage; RNA array
Method in brief: as §1

glucosamine-6-phosphate [3] = variants of: B1; test: self-cleavage kobs at 640 uM GlcN6P; higher = faster cleavage; RNA array
Method in brief: as §1

glucosamine-6-phosphate [4] = variants of: B1; test: self-cleavage kobs at 2500 uM GlcN6P; higher = faster cleavage; RNA array
Method in brief: as §1

glucosamine-6-phosphate [5] = variants of: B1; test: self-cleavage kobs at 10000 uM GlcN6P; higher = faster cleavage; RNA array
Method in brief: as §1

Row | Variant | self-cleavage kobs at 40 uM GlcN6P (glucosamine-6-phosphate [1]) | self-cleavage kobs at 160 uM GlcN6P (glucosamine-6-phosphate [2]) | self-cleavage kobs at 640 uM GlcN6P (glucosamine-6-phosphate [3]) | self-cleavage kobs at 2500 uM GlcN6P (glucosamine-6-phosphate [4]) | self-cleavage kobs at 10000 uM GlcN6P (glucosamine-6-phosphate [5])
1 | AUAAAAGCGCCAGAACUACAGAAAUGUAGUUGACCAGGAGGAGGUUUAUCGAAUUUUCGGCGGAUGCCAGCAAA [G35C U69A C70G] | < 1e-05 s⁻¹ | – | – | – | –
2 | AUAAAAGCGCCAGAACUACAGAAAUGUAGUUGACUAGGAGGAGGUUUAUCGAAUUUUCGGCGUAUGCCUCCAAA [G35U G63U] | < 1e-05 s⁻¹ | < 1e-05 s⁻¹ | < 1e-05 s⁻¹ | < 1e-05 s⁻¹ | < 1e-05 s⁻¹
3 | AUAAAAGCGCCAGAACUACAGAAAUGUAGUUGACCAGGCGGAGGUUUAACGAUUUUUCGGCGGAUGCCUCCAAA [G35C A39C U49A A53U] | < 1e-05 s⁻¹ | – | – | – | –
4 | AUAAAAGCGCCAGAACUACAGAAAUGUAGUUGACUAGGAGGAGGUUUAUCGAAUUUUCGACGGAUGCCUCCAAA [G35U G60A] | < 1e-05 s⁻¹ | < 1e-05 s⁻¹ | < 1e-05 s⁻¹ | < 1e-05 s⁻¹ | < 1e-05 s⁻¹
5 | AUAAAAGCGCCAGAACUACAGAAAUGUAGUUGACCAGGAGGAGGUUUAUCGAAUUUUCGGCGGAUGCCUCGAAA [G35C C71G] | < 1e-05 s⁻¹ | < 1e-05 s⁻¹ | < 1e-05 s⁻¹ | – | –
6 | AUAAAAGCGCCAGAACUACAGAAAUGUAGUUGACUAGGAGUAGGUUUAUCGAAUUUUCGGCGGAUGCCUCCAAA [G35U G41U] | < 1e-05 s⁻¹ | < 1e-05 s⁻¹ | – | < 1e-05 s⁻¹ | < 1e-05 s⁻¹
7 | AUAAAAGCGCCAGAACUACAGAAAUGUAGUUGACUAGGAGGAGGAUUAUGGAAUUUUCGGCGGAUGCCUCCAAA [G35U U45A C50G] | < 1e-05 s⁻¹ | – | – | – | –
8 | AUAAAAGCGCCAGAACUACAGAAAUGUAGUUGACCAGGAGGAGGUUUACCGAAUUUUCGGCGGAUGCCUCCAAA [G35C U49C] | < 1e-05 s⁻¹ | – | < 1e-05 s⁻¹ | – | –
9 | AUAAAAGCGCCAGAACUACAGAAAUGUAGUUGACUAGGAGGAGGUUUAUCGAAUUUUCGGCGGAUGCGUCCAAA [G35U C68G] | 0.000484 ± 0.00019 s⁻¹ | – | – | – | –
10 | AUAAAAGCGCCAGAACUACAGAAAUGUAGUUGACGCGGAGGAGGUUUAUGGAAUUUUCGGCGGAUGCCUUCAAA [A36C C50G C70U] | 0.000435 ± 0.00014 s⁻¹ | – | – | 0.00027 ± 0.0001 s⁻¹ | 0.000831 ± 0.00026 s⁻¹
11 | AUAAAAGCGCCAGAACUACAGAAAUGUAGUUGACAAGGAGGAGGUUUAUCGAAGUUUCGGCGGAUGCGUCCAAA [G35A U54G C68G] | 0.000144 ± 5.9e-05 s⁻¹ | – | – | – | –
12 | AUAAAAGCGCCAGAACUACAGAAAUGUAGUUGACCAGGAGGAGGUUUAUCGAAUUUUAGGCUGAUGCCUCCAAA [G35C C58A G62U] | < 1e-05 s⁻¹ | – | – | – | –
13 | AUAAAAGCGCCAGAACUACAGAAAUGUAGUUGACUAGGAGGAGGAUUAUCGAAUUUCCGGCGGAUGAAUCCAAA [G35U U45A U57C C67A C68A] | < 1e-05 s⁻¹ | – | – | – | < 1e-05 s⁻¹
14 | AUAAAAGCGCCAGAACUACAGAAAUGUAGUUGACUAGGAGGAGGUUUAUCGAAUUUUCGGCCGAUGCCUCCAAA [G35U G62C] | < 1e-05 s⁻¹ | < 1e-05 s⁻¹ | < 1e-05 s⁻¹ | < 1e-05 s⁻¹ | < 1e-05 s⁻¹
15 | AUAAAAGCGCCAGAACUACAGAAAUGUAGUUGACCAGGAGUAGGUUUAUCCAAUUUUCGGCGGAUGCCUCCAAA [G35C G41U G51C] | < 1e-05 s⁻¹ | – | – | < 1e-05 s⁻¹ | –
16 | AUAAAAGCGCCAGAACUACAGAAAUGUAGUUGACUAGGAGGAGGUUUAUCGAUUUUUCGGGGGAUGCGUCCAAA [G35U A53U C61G C68G] | 0.000579 ± 0.00022 s⁻¹ | – | – | – | 0.000516 ± 0.0002 s⁻¹
17 | AUAAAAGCGCCAGAACUACAGAAAUGUAGUUGACCAGGAGGGGGUUUAACGAAUUUUCGGCGGAUCCCUCCAAA [G35C A42G U49A G66C] | < 1e-05 s⁻¹ | – | – | < 1e-05 s⁻¹ | < 1e-05 s⁻¹
18 | AUAAAAGCGCCAGAACUACAGAAAUGUAGUUGACCAGGAGGAGGUGUGUCGAAUUUUCGGCGGACGCAUCCAAA [G35C U46G A48G U65C C68A] | < 1e-05 s⁻¹ | – | – | – | –
19 | AUAAAAGCGCCAGAACUACAGAAAUGUAGUUGACAAGGAGGAGGUUUAUCGAAUUCUCGGCGGUUGCCUCCAAA [G35A U56C A64U] | < 1e-05 s⁻¹ | – | < 1e-05 s⁻¹ | – | < 1e-05 s⁻¹
20 | AUAAAAGCGCCAGAACUACAGAAAUGUAGUUGACCAGGAGGAGGUUUAUCAAAUUUUCGGCGGAUGCUUCCAAA [G35C G51A C68U] | < 1e-05 s⁻¹ | – | – | – | –
21 | AUAAAAGCGCCAGAACUACAGAAAUGUAGUUGACCAGGAGUAGGUUUAUCGAAUUUUCGGCGUAUGCCUCCAAA [G35C G41U G63U] | < 1e-05 s⁻¹ | – | – | – | –
22 | AUAAAAGCGCCAGAACUACAGAAAUGUAGUUGACAAGGAGGAGGUUUAGCGAAUUUUCGGCGGAUGCCUCAAAA [G35A U49G C71A] | < 1e-05 s⁻¹ | – | – | – | < 1e-05 s⁻¹
23 | AUAAAAGCGCCAGAACUACAGAAAUGUAGUUGACGCAGAGGAGGUUUAUCGAAUUUUCGGCGGAUGCCUCCAAA [A36C G37A] | < 1e-05 s⁻¹ | – | – | – | < 1e-05 s⁻¹
24 | AUAAAAGCGCCAGAACUACAGAAAUGUAGUUGACCAGGAGGAGGUUUAUCGAAUUCUCGGCGGAUGCCUCCAAA [G35C U56C] | < 1e-05 s⁻¹ | < 1e-05 s⁻¹ | < 1e-05 s⁻¹ | < 1e-05 s⁻¹ | < 1e-05 s⁻¹
25 | AUAAAAGCGCCAGAACUACAGAAAUGUAGUUGACCAGGAGGAGGUUUAUCGAAUUGUCGGCGGAUGCCUCCAAA [G35C U56G] | < 1e-05 s⁻¹ | < 1e-05 s⁻¹ | < 1e-05 s⁻¹ | < 1e-05 s⁻¹ | < 1e-05 s⁻¹
26 | AUAAAAGCGCCAGAACUACAGAAAUGUAGUUGACGCGGCGGAGGUUUAUCGAAUUUUUGGAGGAUGCCUCAAAA [A36C A39C C58U C61A C71A] | < 1e-05 s⁻¹ | – | – | – | –
27 | AUAAAAGCGCCAGAACUACAGAAAUGUAGUUGACCAGUAGGAGGUUUAUGGAAUUUUCGGCGGAUGCAUACAAA [G35C G38U C50G C68A C70A] | 0.000136 ± 3.2e-05 s⁻¹ | – | – | – | 0.000258 ± 3.9e-05 s⁻¹
28 | AUAAAAGCGCCAGAACUACAGAAAUGUAGUUGACGCGGAGGAGGUUUAUCGUAUUUUCGGCGGAUGCCUCCAAA [A36C A52U] | < 1e-05 s⁻¹ | – | – | – | < 1e-05 s⁻¹
29 | AUAAAAGCGCCAGAACUACAGAAAUGUAGUUGACUAGGAGGAGGAUUAUCGAAUUUUCGGCGCAUGCCUCGAAA [G35U U45A G63C C71G] | < 1e-05 s⁻¹ | – | – | < 1e-05 s⁻¹ | < 1e-05 s⁻¹
30 | AUAAAAGCGCCAGAACUACAGAAAUGUAGUUGACUAGGAGGAGGUUUUUCGAAUUUUCGGCGGAUGCCUCCAAA [G35U A48U] | < 1e-05 s⁻¹ | < 1e-05 s⁻¹ | < 1e-05 s⁻¹ | – | < 1e-05 s⁻¹
